From the nanobody polyreactivity screen of Harvey et al. (2022)

Assay: yeast display, Sf9 membrane polyspecificity reagent, FACS + sequencing; frameworks hold sequencing errors
Procedure, shortened: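 Nanobodies came from a synthetic yeast display library in Saccharomyces cerevisiae BJ5465, induced with galactose for 36–48 hours and stained for 1 hour at 4 °C with 10% biotinylated, detergent-solubilized Sf9 membrane reagent. Cells were enriched on streptavidin microbeads and then FACS-sorted, with low and high (top ~1%) gates set on anti-HA fluorescence for expression and streptavidin fluorescence for reagent binding. Each polyreactivity label reflects the gate a clone came from. Genes were amplified by colony PCR, sequenced by MiSeq 2 × 250 and filtered by CDR length.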

| Sequence | polyreactivity (PSR sort gate) |
| --- | --- |
| QVQLVESGGGLVQAGGSLRLSCAASGFTFSFYTMGGYRQAPGTARELVAAISRNGGSTYYADSVKGRFTISRDNAKTTDYFQMNSLKPEDTAVYYCAARARGGDWGSGDYWGQGTQVTVSS | high polyreactivity |
| QVQLVESGGGLVQAGGSLRLSCAASGSIFLYYVMGWYRKAPGKERELVAAITWDGGSTYYADSVKGRFTISRDNAKNTVYLQMNSLKPEDTAVYYCNKGFKLWPRYGYDYWGQGTQVTVSS | low polyreactivity |
| QVQLVESGGGLVQAGGSLRLSCAACGITFTSNAMGWYRQAPGKERELVASISWSDDNTHYADSVKGRFTISRDNAKYTVYLQMNSLKPEDTAVYYCAADGTHPRPGTYKFDYWGQGTQVTVSS | low polyreactivity |
| QVQLVESGGGLVQAGGSLRLSCAASGLIFPRYAMGWYRQAPGKVSELVAAITWSGGSTFYADSVKGRFTISRDTAKNTVYLQMNSLKPEDTAVYYCAAQDASERTYGYDGYYYWGQGTQVTVSS | low polyreactivity |
| QVQLVESGGGLVQAGGSLRLSCAASGITFYEYAMGWYRQAPGKERELVAAITSGGTTNYADSVKGRFTISRDNAKNTVYLQMNSLKPEDTAVYYCAKDEGEGYDYWGQGTQVTVSS | low polyreactivity |
| QVQLVESGGGLVQAGGSLRLSCAASGSLFPLYAMGWYRQAPGKERELVAAITWRGGSTYYADSVKGRFTISRDNAKNTVYLQMNSLKPEDTAVYYCNRDLVPRFDYWGQGTQVTVSS | low polyreactivity |
| QVQLVESGGGLVQAGGSLRLSCAASGLTFKDNAMGWYRQAPGKERELVAAISKGGGSTFYADSVKGRFTISRDNAKNTVYLQMNSLKPEDTAVYYCNADVGYRGGEEDYWGQGTQVTVSS | low polyreactivity |
| QVQLVESGGGLVQAGGTLRLSCAASGSTQWGYDMGWYRQATGKERELVAAISSSGSNTRYADSVKGRFTISRDNEKNTVYLQLNRLKPEDTAVYYCTARTYLRGKTDYGYDSWGQGTHVTVSS | high polyreactivity |
| QVQLVESGGGLVQAGGSLRLSCAASGSTFVPNDMGWYRQAPGKERELVAGISSVGGTDADSVKGRFTISRDNAKNTVYLQMNSLKPEDTAVYYCNALHAYYVLTPYDYWGQGTQVTVSS | low polyreactivity |
| QVQLVESGGGLVQAGGSLRLSCAASGRTFGSYVMVWYRQAPGKEREFVAVISGSVGSTYYADSVKGRFTISRDNAKNTVYLQMNSLKPEDTAVYYCARRGIRTSETKQYHQYNYWGQGTQVTVSS | low polyreactivity |
| QVQLVESGGGLVQAGGSLRLSSAASGSIYGYTMGWYRQAPGKERELVAAINRRADRTYYADSVKGRFTISRDNAKNTVYLEMNILKPEDTAVYYCNKGGWYTLGYWGQGTQVTVSS | high polyreactivity |
| QVQLVESGGGLVQAGGSLRLSCAASGLTFDPYAMGWYRQAPGKEREFVATITTSGDSTYYADSVKGRFTISRDNAKNTVYLQMNSLKPEDTAVYYCNTQSRTLGWPLDYWGQGTQVTVSS | high polyreactivity |
| QVQLVESGGGLVQAGGSLRLSCAASGSTFTGYAMGWYRQAPGKERELVAAISRSVGRTYYADSVKGRFTISRDNAKNTVYLQMNSLKPEETAVYYCAADVFLTGSRNYYWGQGTQVTVSS | high polyreactivity |
| QVQHVESGGGLVQAGGSLRLSCAASGSTFGLYAMGWYRQAPGKERELVAAISRRGGSTYYADSVKGRLTISRDNAKNTVYLQMNSLRPVETAVYDCAAVTAYRFDTLGMDYWGQGTQVTVSS | high polyreactivity |
| QVHLVESGGGLVQAGRSLRLSCAASGRIFSRYAMGGSRQAPGKERELVAVISRSGADTYYADSVKGRFTISRDNAKTTVYLQMNSLKPEDSAVYSCNAYSARRPHPMGYDYWGQCTQVTVSS | high polyreactivity |
| QVQLVESGGGLVQAGGSLRLSCAASGRIFSTNAMGWYRQAPGKERELVATIRTSGGSTYYADSVKGRFTISRDNAKNTVYLQMNSLKPEDTAVYYCAARRFLHYTTYYGTGRYDYWGQGTQVTVSS | low polyreactivity |
| QVQLVESGGGLVQAGGSLRLSCAASGYIFEIYAMGWYRQAPGKERELVAAISTRGGRTYYADSVKGRFTISRDNAKNTVYLEMKSLKPEDTAVYYCARESSIVPYGYWGQGTQVTVSS | low polyreactivity |
| QVQLVESGGGLVQAGGSLRLSCAASGRILPLYAMGWYRQAPGKERELVARIDSGGSTNYADSVKGRFTISRDNAKNTVYLQMNSLKPEDTAVYYCAAVVTAQAFAYFTYGYDYWGQGTQVTVSS | low polyreactivity |
| QVQLVESGGGLVQAGGSLRLSSAAYGRIFAANANGWYRQAPGKERELVAAISSGGSTNYADSVKGRFTISRDNAKNTVYLPMISLKPEDTAVYYCAADASWYAYCYYYWGQGTQVTVSS | low polyreactivity |
| QVQLVESGGGLVQAGGSLRISCAASGFIFDPYAMGWYRQAPGKERELVASINTRGDRTSYADSVKGRFTISRDNAKNTVYLQMNSLKPEDTAVYYCNADAVDQVGPDDDYWGQGTQVTVSS | low polyreactivity |
| QVQLQESGGGLVQAGGSLRLSCAASGYISHADEMGWYRQAPGKEHELVASISNGGSTNYADSVKGRFTIRRDNAKNTVYLQMNSLKSEDTAVYYCAAWTGQVDIHDSWGQRTQVTVSS | low polyreactivity |

| Sequence | polyreactivity (PSR sort gate) |
| --- | --- |
| QFQLVESGGGLVQAGGSLRLSCAASGSIFVTNAMGWYRQAPGKERELVAAISSGGNTNYADSVKGRFTISRDNAKNTVYLQMNSLKPEDTAVYYCAKDPDKVDFVDMDYWGQGTQVTVSS | low polyreactivity |
| QVQLVESGGGLVQAGGSLRLSCAASGRIFARYAKGWSRQAPGKERELVAAISRGGSTKNADSVKGRFTISRDNAKITVYLQMNSLKPEDTAVYYCATEYYGPVYDLDYDYWGQGTQVTVSS | low polyreactivity |
| QVQLVESGRGLFQAGGSLRLSCAASGIIFKSYAMGWYRQAPGKEREFVAAISWSGGRTTYADSLKGRFTISRDNAKNTVYLPMNSLKPEDTAVYYCAAAARGKFYYWGQGTQVTVSS | high polyreactivity |
| QVQLVESGGGLVQSGGSLRLSCAASGLTLGHNAMGLYRQAPGKERELVAAITRGGSTNYSDSVKGRFTISRDNAKNTVYFHMNSLKPEYTAVYSCAADLYLGWYYGFEYDYWGQGTQVTVSS | low polyreactivity |
| QVQLVESGGGLVQAGGSLRLSCAASGRTFLINAMGWYRQAPGKERELVAAITQSGGSTYYADSVKGRFTISRDNAKNTVYLQMNSLKPEDTAVYYCNAQSWYIVPYDYWGQGTQVTVSS | low polyreactivity |
| QVQLVESGGGLVQAGGSLRLSCAASGSISYRYVMGWYRQAPGKERELVAAITTSGGSTYYADSVKGRFTISRDNAKNTVYLQKNSLKPEDTAVYYCAKVYQADQLRSHYDYWGQGTQVTVSS | high polyreactivity |
| QDQLVESRGGLVQAGGSLRLTCAASGSTFVIYDMGWYSQATGKERELVAVITIIGGSTYYADSVKGRFTISRDNAKNTVYLQMNSLKPEDTAVYYCNANVIQDYPNYDYWGQGTQVSVSS | low polyreactivity |
| QVQLVESGGGLVQAGGSLRLSCAASGSTFWEYVMGWYRQAPGKERELVAAITTNDDSTYYADSVKGRFTISRDNAKNTVYLQMNSLKPEDTAVYYFNADQITGQFDYWGQGTQVTVSS | low polyreactivity |
| QVQLVESGGGLVQAGGSLRLSCAASGFIFEGYAMGWYRQAPGKERELVATISRSGGRTNYADSVKGRFTISRDNAKNTVYLQMNSLKPEDTAVYYCAAAYLRRVAYDYWGQGTQVTVSS | high polyreactivity |
| QVQLVESGGGLVQAGGSLRLSCAASGITFVYYVMGWYRQAPGKERELVAGISSGGSTYYADSVKGRFTISRDNAKNTVYLQMNSLKPEDTAVYYCAAVSTPYYGHVKRYYYWGQGTQVTVSS | high polyreactivity |
| QVQLVESGGGLVQAGGSLRLSCAASGRIFSRYAMGRYRQAPGKERELVAAITQSGTSTYYADSVKGRFTISRDNAKNTVYLQMNSLKPEDTAVYYCNAYRQYRYDYWGQGTQVTVSS | low polyreactivity |
| QVQLVESGGGLVQAGGSLRLSCAASGSTLWIYAMGWYRQAPGKERELVAAISWSTGRTYYADSVKGRFTISRDNAKNTVYLQMNSLKPVDTAVYYCNAGPQHNTLKLFYYWGQGTQVTVSS | low polyreactivity |
| QVQLVESGGGLVQSGGSLRLSCAASGSIFGYYAMGWYRPAPGKERELVAGITNSGDTNYADSVKGRFTISRDNAKNTVYLQMNSLKPEDTAVYYCAAESWAALYGMDYWGQGTQVTVSS | low polyreactivity |
| QFQLVDSGGGLVQAGGSLRLSCAASGSTFGYYAMGWYRQATGKERELVAAISWRGGSTSYADSVKGRFTISRDNAKNTVYLQMNSLIPEDTAVYLCAAGGDINKYGRQYRYDYWGQGTQVTVSS | high polyreactivity |
| QVHLVESGGVLLQAGGSLRLSCAASGFIFKWNAMGWYRQAPGKERELVAAISWHGGSTNYADSVKGRFTISRDNAKNTVYLQMNSLKPEDTAVYYCAKQQSPYYPSTLDYWGQGTQVTVSS | high polyreactivity |
| QVQLEESGGGLVQAGGSLRLSCAASGGIFIFYAMGWYRQAPGKERELVAAISNVSSTNYADSVKGRFTISRDNAKNSVYLQMNSLKPEDTAVYYCNAVGVPSEYYSWGHGTQVTVSS | low polyreactivity |
| QVQLVESGGGLVQAGGSLRLSCAASGSTLFINAMGWYRQAPGKERELVAAITSGTSTNYADSVKGRFTISRDNAKNTVYLQMNSLKPEDTAVYYCAVDYWYVPYYWGQGTQVTVSS | low polyreactivity |
| QVQLVESGGGLVQAGGSLRLSCPASGRTFQVYAMGWYRQAPGKERELVAGITRAGSTYYADSVKGRFTISRDNAKNTVYLQMISLKPEDTAVYYCAAGWKSSYYIWRYGSWGQGTQVTVSS | high polyreactivity |
| QVQLVESGGGLVQAGGSLRLSCAASGRTFKSYALGWYRQAPGKERELVATITRDGRTNYADSVKGRFTISRDNAKNTVYLQMNSLKPEDTAVYYCNADSRYRYDYWGQGTQVTVSS | low polyreactivity |
| QVQLVESGGGLVQAGGSLRLSCAASGRTFYIYAMGWYRQAPGKERELVAAITWSGGSSTYYADSVKGRFTISRDNAKNTVYLQMNSLKPEDTAVYYCAAETHYYWYEQYDYWGQGTQVTVSS | high polyreactivity |
